Experiments:
Assay in all cases: ProtoArray, GST-treated control array;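 on GST Average SNR: human protein microarray (about 9500 recombinant proteins) incubated overnight with GST alone plus SAM cofactor as the negative control for G9a SET domain methylation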
[1] = biological target: T1, LYPLAL1-lysophospholipase-like 1 (LYPLAL1) (human, UniProt Q5VWZ2 1-237)
T1 sequence (looked up): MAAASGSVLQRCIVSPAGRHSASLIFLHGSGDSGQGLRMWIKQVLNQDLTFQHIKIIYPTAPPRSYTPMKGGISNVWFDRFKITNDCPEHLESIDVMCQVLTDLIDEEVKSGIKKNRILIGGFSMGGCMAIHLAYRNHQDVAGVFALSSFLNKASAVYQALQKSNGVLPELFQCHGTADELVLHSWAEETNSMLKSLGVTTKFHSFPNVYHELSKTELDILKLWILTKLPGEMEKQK

[2] = biological target: DGKA-diacylglycerol kinase, alpha 80 kDa (DGKA) (human, UniProt P23743 1-735)
DGKA-diacylglycerol kinase, alpha 80 kDa (DGKA), sequence (P23743 whole entry): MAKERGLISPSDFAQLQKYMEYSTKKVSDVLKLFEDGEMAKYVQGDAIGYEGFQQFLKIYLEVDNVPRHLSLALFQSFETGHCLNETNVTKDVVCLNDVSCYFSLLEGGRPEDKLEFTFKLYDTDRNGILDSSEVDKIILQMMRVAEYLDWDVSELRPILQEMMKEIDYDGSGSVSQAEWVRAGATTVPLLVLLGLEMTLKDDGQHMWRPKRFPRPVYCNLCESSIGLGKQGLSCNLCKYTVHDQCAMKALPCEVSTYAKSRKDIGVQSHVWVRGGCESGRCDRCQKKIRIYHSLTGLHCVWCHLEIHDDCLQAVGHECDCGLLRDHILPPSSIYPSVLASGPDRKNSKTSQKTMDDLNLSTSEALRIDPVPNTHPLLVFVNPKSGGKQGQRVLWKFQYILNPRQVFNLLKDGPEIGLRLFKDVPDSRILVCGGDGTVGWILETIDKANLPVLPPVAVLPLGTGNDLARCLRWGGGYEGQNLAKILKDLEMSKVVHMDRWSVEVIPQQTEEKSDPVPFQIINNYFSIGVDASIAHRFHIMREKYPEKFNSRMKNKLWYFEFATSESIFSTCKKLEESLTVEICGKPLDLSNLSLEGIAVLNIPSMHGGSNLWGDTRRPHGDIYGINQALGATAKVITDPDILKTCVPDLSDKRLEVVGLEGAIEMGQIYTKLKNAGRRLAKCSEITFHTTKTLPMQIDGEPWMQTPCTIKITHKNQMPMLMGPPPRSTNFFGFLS

[3] = biological target: T2, DIRAS1-DIRAS family, GTP-binding RAS-like 1 (DIRAS1) (human, UniProt O95057 1-198, limits assumed)
T2 sequence (looked up): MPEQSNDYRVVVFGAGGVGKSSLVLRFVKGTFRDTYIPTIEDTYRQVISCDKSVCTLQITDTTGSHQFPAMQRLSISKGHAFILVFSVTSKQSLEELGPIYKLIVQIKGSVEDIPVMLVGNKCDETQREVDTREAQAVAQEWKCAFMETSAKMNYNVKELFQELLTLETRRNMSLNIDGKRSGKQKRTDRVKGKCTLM

[4] = biological target: T3, KIFC1-kinesin family member C1 (KIFC1) (human, UniProt Q9BW19 1-673)
T3 sequence (looked up): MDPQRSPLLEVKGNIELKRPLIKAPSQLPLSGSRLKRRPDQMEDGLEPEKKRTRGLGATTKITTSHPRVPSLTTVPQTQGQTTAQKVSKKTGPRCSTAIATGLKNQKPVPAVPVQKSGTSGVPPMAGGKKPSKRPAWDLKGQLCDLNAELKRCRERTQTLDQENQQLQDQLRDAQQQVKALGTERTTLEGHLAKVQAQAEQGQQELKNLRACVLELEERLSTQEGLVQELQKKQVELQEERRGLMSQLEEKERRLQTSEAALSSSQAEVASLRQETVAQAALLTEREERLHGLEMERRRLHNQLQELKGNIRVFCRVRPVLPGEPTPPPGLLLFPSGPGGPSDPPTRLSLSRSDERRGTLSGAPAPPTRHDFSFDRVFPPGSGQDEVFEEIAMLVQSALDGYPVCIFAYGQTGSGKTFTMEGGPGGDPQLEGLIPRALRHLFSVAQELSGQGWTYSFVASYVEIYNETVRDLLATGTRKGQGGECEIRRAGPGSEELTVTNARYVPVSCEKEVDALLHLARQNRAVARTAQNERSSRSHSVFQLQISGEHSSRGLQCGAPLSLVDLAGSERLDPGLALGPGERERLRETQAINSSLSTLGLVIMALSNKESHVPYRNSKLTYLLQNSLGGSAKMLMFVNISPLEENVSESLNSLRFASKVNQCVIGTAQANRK

[5] = biological target: T4, PPIL5-Peptidylprolyl isomerase-like 5 (human, UniProt Q96L50 1-414, limits assumed)
T4 sequence (looked up): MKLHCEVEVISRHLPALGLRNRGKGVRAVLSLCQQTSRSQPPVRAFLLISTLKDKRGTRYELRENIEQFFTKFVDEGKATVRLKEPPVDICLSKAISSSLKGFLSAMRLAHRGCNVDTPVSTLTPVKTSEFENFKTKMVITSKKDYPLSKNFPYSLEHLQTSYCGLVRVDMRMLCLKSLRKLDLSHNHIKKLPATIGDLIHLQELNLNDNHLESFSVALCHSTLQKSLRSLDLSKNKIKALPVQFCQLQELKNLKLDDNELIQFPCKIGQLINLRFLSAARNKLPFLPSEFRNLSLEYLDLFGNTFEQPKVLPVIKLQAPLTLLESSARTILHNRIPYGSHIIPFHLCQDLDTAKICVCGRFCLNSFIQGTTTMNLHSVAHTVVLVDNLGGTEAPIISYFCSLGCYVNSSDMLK

[6] = biological target: T5, GHRL-ghrelin/obestatin preprohormone (GHRL) (human, UniProt Q9UBU3 1-117, limits assumed)
T5 sequence (looked up): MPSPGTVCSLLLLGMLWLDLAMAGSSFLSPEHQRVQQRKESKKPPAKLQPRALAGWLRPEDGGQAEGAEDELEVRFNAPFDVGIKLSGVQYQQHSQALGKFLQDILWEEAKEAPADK

[7] = biological target: HS3ST1-heparan sulfate (glucosamine) 3-O-sulfotransferase 1 (HS3ST1) (human, UniProt O14792 21-307, limits assumed)
HS3ST1-heparan sulfate (glucosamine) 3-O-sulfotransferase 1 (HS3ST1), sequence (O14792 21-307 limits assumed): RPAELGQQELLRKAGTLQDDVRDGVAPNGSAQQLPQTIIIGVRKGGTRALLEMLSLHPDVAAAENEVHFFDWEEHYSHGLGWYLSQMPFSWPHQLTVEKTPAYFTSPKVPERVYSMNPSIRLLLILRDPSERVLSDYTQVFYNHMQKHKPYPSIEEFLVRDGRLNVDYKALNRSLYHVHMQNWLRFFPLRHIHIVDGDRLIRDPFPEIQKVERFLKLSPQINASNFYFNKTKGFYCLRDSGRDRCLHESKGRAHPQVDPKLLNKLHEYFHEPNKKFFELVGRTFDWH

CTXN1-cortexin 1 (CTXN1) = biological target: T6, CTXN1-cortexin 1 (CTXN1) (human, UniProt P60606 1-82)
T6 sequence (looked up): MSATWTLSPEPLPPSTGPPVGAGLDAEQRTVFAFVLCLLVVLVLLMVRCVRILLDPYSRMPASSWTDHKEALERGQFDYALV

[8] = biological target: T7, CD79A-B-cell antigen receptor complex-associated protein alpha-chain (human, UniProt P11912 33-226, limits assumed)
T7 sequence (looked up): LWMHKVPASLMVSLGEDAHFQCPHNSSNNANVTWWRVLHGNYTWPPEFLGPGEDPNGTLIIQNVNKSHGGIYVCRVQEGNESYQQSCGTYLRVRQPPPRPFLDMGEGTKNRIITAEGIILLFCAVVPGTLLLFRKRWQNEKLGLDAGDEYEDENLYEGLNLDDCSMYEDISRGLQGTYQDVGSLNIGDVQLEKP

[9] = biological target: T5, GHRL-ghrelin/obestatin preprohormone …; remark: listed apart in the source
[10] = biological target: T8, GAL-galanin prepropeptide (GAL) (human, UniProt P22466 1-123, limits assumed)
T8 sequence (looked up): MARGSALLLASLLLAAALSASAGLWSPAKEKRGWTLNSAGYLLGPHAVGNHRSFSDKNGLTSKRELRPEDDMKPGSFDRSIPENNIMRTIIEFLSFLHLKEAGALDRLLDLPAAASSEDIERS

GST Average SNR [1]: 0.066 | GST Average SNR [2]: 1.23 | GST Average SNR [3]: 0.988 | GST Average SNR [4]: 0.745 | GST Average SNR [5]: -0.512 | GST Average SNR [6]: 0.402 | GST Average SNR [7]: 0.092 | GST Average SNR (CTXN1-cortexin 1 (CTXN1)): 1 | GST Average SNR [8]: -0.746
B1: 3× Flag-3×MBT (designed binder)
chain: EEWSSSQPATGEKKECWSWESYLEEQKAITAPVSLFQDSQAVTHNKNGFKLGMKLEGIDPQHPSMYFILTVAEVCGYRLRLHFDGYSECHDFWVNANSPDIHPAGWFEKTGHKLQPPKGYKEEEFSWSQYLRSTRAQAAPKHLFVSQSHSPPPLGFQVGMKLEAVDRMNPSLVCVASVTDVVDSRFLVHFDNWDDTYDYWCDPSSPYIHPVGWCQKQGKPLTPPQDYPDPDNFCWEKYLEETGASAVPTWAFKVRPPHSFLVNMKLEAVDRRNPALIRVASVEDVEDHRIKIHFDGWSHGYDFWIDADHPDIHPAGWCSKTGHPLQPPLGPREPSSASPGG
notes: also called Flag-tagged 3×MBT; 3xFlag-3xMBT; not shown: made by PreScission cleavage of GST-3× Flag-3×MBT
binding result [9]: no binding (tested: GST array SNR <= 1.5) | binding result [10]: no binding (tested: GST array SNR <= 1.5)

From patent US20140274782A1 (Stanford University, published 2014)
